Experimental data taken from patent US20110243928A1 (published 2011).
Each block holds one binder with its values, some of them ahead of it. *: point of attachment. Biotin = O=C1N[C@H]2[C@H](CS[C@H]2CCCCC(=O)*)N1

Experiments:
[1] = molecular target: T1, E. coli-expressed recombinant human IL-4 (human, UniProt P05112 25-153); assay: binding ELISA
T1 sequence (looked up): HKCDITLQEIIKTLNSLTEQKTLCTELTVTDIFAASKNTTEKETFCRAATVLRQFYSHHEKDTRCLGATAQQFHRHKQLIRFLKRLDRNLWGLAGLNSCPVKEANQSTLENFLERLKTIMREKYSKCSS

[2] = molecular target: T2, E. coli-expressed recombinant human GM-CSF (human, UniProt P04141 18-144); assay: binding ELISA
[3] = molecular target: T3, E. coli-expressed recombinant human IL-13 (human, UniProt P35225 35-146); assay: BIAcore analysis 2
T3 construct: Untagged E. coli-expressed human IL-13; also called hIL-13; human IL13 (CA)

[4] = molecular target: T3, E. coli-expressed recombinant human …; assay: BIAcore, summary of the analyses
[5] = molecular target: T3, E. coli-expressed recombinant human …; assay: human IL-13 binding sandwich ELISA
[6] = molecular target: T4, 16mer biotinylated human IL-13 peptide number 24 (human, N-terminal biotin; C-terminal amide); assay: BIAcore analysis 3, antibody over immobilised biotinylated peptide 24
T4 construct: format Biotin-SGSG-PEPTIDE-amide; also called Peptide 24
T4 peptide: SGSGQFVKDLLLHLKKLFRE
Protocol: (§1) Completed for the 16mer biotinylated human IL-13 peptide number 24 (identified as the linear binding epitope for parental mAb 6A1, see section 6.7). Note that the absolute KD values obtained for binding to peptide ligands are often quite different to those seen for binding to whole protein targets.
(§2) The kinetics analysis was performed on a Biacore 3000 machine using direct binding of antibody to immobilised IL-13 peptide. Briefly, IL-13 biotinylated peptide was captured using a Biacore SA (strepavidin) Biosensor chip. The antibodies were then passed over the sensor surface at various concentrations. The subsequent binding curves were analysed with Biacore analysis software BIAeval 4.1 to determine kinetics. The experiment was carried out using Biacore HBS-EP buffer

[7] = molecular target: T4, 16mer biotinylated human IL-13 peptide …; assay: BIAcore analysis 3, antibody over biotinylated peptide on SA chip
Protocol: as §1, §2

[8] = molecular target: T3, E. coli-expressed recombinant human …; assay: BIAcore
[9] = molecular target: T5, E. coli-expressed recombinant det-1 tagged human IL-13 (human, UniProt P35225 35-146); assay: BIAcore
T5 construct: also called Det-1 tagged human IL-13 (made in-house); not shown: det-1 tag

[10] = molecular target: T6, E. coli-expressed recombinant cynomolgus IL-13 (cynomolgus, UniProt Q5I6E4 21-132 (Macaca thibetana entry)); assay: BIAcore
T6 construct: also called cyno IL13 (CA); cIL-13
T6 chain: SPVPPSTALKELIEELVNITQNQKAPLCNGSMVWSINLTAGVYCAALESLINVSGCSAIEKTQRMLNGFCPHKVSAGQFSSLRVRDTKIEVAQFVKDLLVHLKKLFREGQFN

[11] = molecular target: T2, E. coli-expressed recombinant human …; assay: sandwich ELISA
[12] = molecular target: T3, E. coli-expressed recombinant human …; assay: cell-based or functional assay
[13] = molecular target: T6, E. coli-expressed recombinant …; assay: cell-based or functional assay
[14] = molecular target: E. coli-expressed recombinant Q130 human IL-13 (human, UniProt P35225 35-146, limits assumed); assay: cell-based or functional assay
[15] = molecular target: mammalian-expressed (CHO cell) human IL-13 (human, UniProt P35225 35-146, limits assumed); assay: cell-based or functional assay
16 mer peptide 30 = molecular target: T7, 16 mer peptide 30 (N-terminal biotin; C-terminal amide); assay: 16 mer peptide ELISA
T7 peptide: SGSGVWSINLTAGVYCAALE
Description: (§3) Biotinylated 16 mer peptides offset by 4 were synthesised to map the location of the B cell epitope recognised by mAb 6A1 on both human and cynomolgus IL-13. An ELISA method was used to detect binding of immobilised biotinylated peptide to the parental mAb 6A1.

16 mer peptide 44 = molecular target: T8, 16 mer peptide 44 (cynomolgus, N-terminal biotin; C-terminal free acid); assay: 16 mer peptide ELISA
T8 construct: also called 44 (Control)
T8 peptide: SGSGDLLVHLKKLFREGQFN
Description: as §3

fine mapping peptide 421 = molecular target: T9, fine mapping peptide 421 (SMILES …); assay: fine mapping peptide ELISA
T9 peptide: Biotin-SGSGKLFREG-NH2
Protocol: (§4) A binding epitope for mAb 6A1 was determined using a peptide set based around […] for binding to human IL-13 and […] for binding to cynomolgus IL-13. Peptides were ordered with 1 amino acid sequentially removed from either the N or C-terminus of these parental peptide sequences (i.e. […] or […]), in order to define the precise linear binding epitope for mAb 6A1.
(§5) An ELISA method was used to detect binding of immobilised biotinylated peptide to the parental mAb 6A1.

fine mapping peptide 423 = molecular target: T10, fine mapping peptide 423 (SMILES N=C(N)NCCC[C@H](NC(=O)[C@H](Cc1ccccc1)NC(=O)CNC(=O)[C@H](CO)NC(=O)CNC(=O)[C@H](CO)NC(=O)CCCC[C@@H]1SC[C@@H]2NC(=O)N[C@@H]21)C(=O)N[C@@H](CCC(=O)O)C(=O)NCC(N)=O); assay: fine mapping peptide ELISA
T10 peptide: Biotin-SGSGFREG-NH2
Protocol: as §4, §5

[16] = molecular target: T1, E. coli-expressed recombinant human IL-4; assay: human IL-4 binding sandwich ELISA
[17] = molecular target: T5, E. coli-expressed recombinant det-1 …; assay: competition ELISA: inhibition of det-1 tagged human IL-13 binding to human IL-13Rα1-Fc
[18] = molecular target: T5, E. coli-expressed recombinant det-1 …; assay: competition ELISA: inhibition of det-1 tagged human IL-13 binding to human IL-13Rα2-Fc

T5 sequence (P35225 other isoform, or with tags, fused parts or gaps): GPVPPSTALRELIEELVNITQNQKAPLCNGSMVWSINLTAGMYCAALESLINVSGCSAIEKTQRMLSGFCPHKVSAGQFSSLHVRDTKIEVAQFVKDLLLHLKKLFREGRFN
T3 sequence (P35225 other isoform, or with tags, fused parts or gaps): as above
T2 sequence (P04141 18-144 limits assumed): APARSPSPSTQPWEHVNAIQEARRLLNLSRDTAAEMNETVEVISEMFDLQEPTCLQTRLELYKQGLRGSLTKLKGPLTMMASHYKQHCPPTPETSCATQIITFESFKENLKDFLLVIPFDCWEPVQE
Chain of E. coli-expressed recombinant Q130 human IL-13 (P35225 35-146 limits assumed): as the sequence (P35225 other isoform, or with tags, fused parts or gaps) above, with R110Q counted along it
Chain of mammalian-expressed (CHO cell) human IL-13 (P35225 other isoform, or with tags, fused parts or gaps limits assumed): as the sequence (P35225 other isoform, or with tags, fused parts or gaps) above

binding result [1]: no binding (tested: 30 µg/ml)
binding result [2]: no binding (tested: 30 µg/ml)
Kd [3]: 0.149 nM
koff [3]: 6.95e-05 s⁻¹
kon [3]: 466000 M⁻¹ s⁻¹
Kd [4]: ~0.168 nM
koff [4]: 8.22e-05 s⁻¹
kon [4]: ~600000 M⁻¹ s⁻¹
EC50 [5]: 0.018 µg/mL
fold reduction in affinity against chimaeric 6A1 [6]: ~3 fold
Kd [7]: 9.03 nM
koff [7]: 0.0017 s⁻¹
kon [7]: 195000 M⁻¹ s⁻¹
B1: L1+A1 (antibody, human IgG1, kappa, V domains shown)
VH: QVQLVQSGAEVKKPGSSVKVSCKASGFYIKDTYMHWVRQAPGQGLEWMGTIDPANGNTKYVPKFQGRVTITADESTSTAYMELSSLRSEDTAVYYCARSIYDDYHYDDYYAMDYWGQGTLVTVSS
VL: DIVMTQSPLSLPVTPGEPASISCRSSQNIVHINGNTYLEWYLQKPGQSPRLLIYKISDRFSGVPDRFSGSGSGTDFTLKISRVEADDVGIYYCFQGSHVPWTFGQGTKLEIKR
notes: Humanised 6A1, VH construct A1 and VL construct L1, human gamma1 wild type / kappa constant regions; also called A1L1; humanised anti-IL-13 mAb L1+A1

Kd [8]: 0.27 nM
koff [8]: 0.000184 s⁻¹
kon [8]: 682000 M⁻¹ s⁻¹
Kd [9]: 0.032 nM
koff [9]: 7.2e-05 s⁻¹
kon [9]: 2.25e+06 M⁻¹ s⁻¹
Kd [10]: 0.0612 nM
koff [10]: 5.6e-05 s⁻¹
kon [10]: 914000 M⁻¹ s⁻¹
binding result [11]: no binding
ND50, TF-1 cell proliferation bioassay [12]: 0.0783 µg/mL
ND50, TF-1 cell proliferation bioassay [13]: 0.04 µg/mL
ND50, TF-1 cell proliferation bioassay [14]: 0.11 µg/mL
ND50, TF-1 cell proliferation bioassay [15]: 0.037 µg/mL
absorbance at 490 nm (16 mer peptide 30): 0.062 A490
absorbance at 490 nm (16 mer peptide 44): 2.23 A490
absorbance at 490 nm (fine mapping peptide 421): 0.059 A490
absorbance at 490 nm (fine mapping peptide 423): 0.052 A490
binding result [16]: no binding
EC50 [5]: 0.049 µg/mL
Kd [7]: 3.11 nM
koff [7]: 0.000915 s⁻¹
kon [7]: 295000 M⁻¹ s⁻¹
IC50 [17]: 0.165 µg/mL
IC50 [18]: 0.056 µg/mL
B2: monoclonal antibody 6A1 (antibody, IgG1, V domains shown)
VH: EIQLQQSVAELVRPGASVRLSCTASGFYIKDTYMHWVIQRPEQGLEWIGTIDPANGNTKYVPKFQGKATITADTSSNTAYLRLSSLTSEDTAIYYCARSIYDDYHYDDYYAMDYWGQGTSVTVSS
VL: DVLMTQTPLSLPVSLGDQASISCRSSQNIVHINGNTYLEWYLQKPGQSPKLLIYKISDRFSGVPDRFSGSGSGTDFTLKISRVEAEDLGVYYCFQGSHVPWTFGGGTKLEIK
notes: also called 6A1 parental mAb; parental mouse mAb 6A1
